We go through one molecule from US20220119534A1 (DRAGONFLY THERAPEUTICS, published 2022).

For assay [1], the target named is T1, mFc-hNKG2D (recombinant mFc-tagged human NKG2D dimer) (human, UniProt P26718 73-216).
T1 construct: extracellular domain; Made in house; not shown: mouse Fc tag
T1 sequence (looked up): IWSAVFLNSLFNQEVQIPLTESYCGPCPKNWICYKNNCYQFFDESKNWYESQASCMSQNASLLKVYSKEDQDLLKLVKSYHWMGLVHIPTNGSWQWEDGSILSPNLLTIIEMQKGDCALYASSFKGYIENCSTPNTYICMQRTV
Put plainly: SPR; after low pH hold. In general terms: SPR reads the build-up and loss of mass on a sensor chip optically.

The target of assay [2] is T2, Human CD16a V158 (FcγRIIIa V158) (human, UniProt P08637 17-208, biotinylated).
T2 construct: Bought recombinant receptor; also called hCD16aV; hFcγRIIIa V158
Put plainly: SPR; after low pH hold.

Assay [3] addresses T3, Human CD16a F158 (FcγRIIIa F158) (human, UniProt P08637 17-208, biotinylated).
T3 construct: Bought recombinant receptor; also called hFcγRIIIa F158
Put plainly: SPR 25C, steady-state fit, average.

The target of assay [4] is T4, Human CLEC12A-His (recombinant, K244 WT) (human, UniProt Q5QGZ9 65-265).
T4 construct: Made in house (Dragonfly Tx); also called hCLEC12A; hCLEC12A-His; not shown: His tag
T4 sequence: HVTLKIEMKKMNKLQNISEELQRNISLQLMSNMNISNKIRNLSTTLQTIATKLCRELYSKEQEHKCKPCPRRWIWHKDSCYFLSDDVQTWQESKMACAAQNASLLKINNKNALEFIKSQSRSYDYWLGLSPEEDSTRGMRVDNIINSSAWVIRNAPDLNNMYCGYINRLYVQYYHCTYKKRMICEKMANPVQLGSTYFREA
Description: SPR, two-state fit (kd1); control sample.

Assay [5] has as its target T5, Human CLEC12A expressed on cells (Ba/F3-hCLEC12A, PL21, HL60) (human, UniProt Q5QGZ9 1-265).
T5 sequence: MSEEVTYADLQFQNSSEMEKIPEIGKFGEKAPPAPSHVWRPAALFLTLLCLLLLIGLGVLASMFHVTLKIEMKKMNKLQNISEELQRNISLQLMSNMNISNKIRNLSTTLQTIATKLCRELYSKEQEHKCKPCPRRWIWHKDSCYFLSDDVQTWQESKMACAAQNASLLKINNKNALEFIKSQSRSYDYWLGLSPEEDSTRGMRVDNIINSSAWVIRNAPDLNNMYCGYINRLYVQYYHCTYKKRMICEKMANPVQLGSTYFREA
Description: cell-based or functional assay.

For assay [6], the target named is T4, Human CLEC12A-His (recombinant, K244 WT). Put plainly: SPR 37C, two-state fit, average.
Assay [7] has as its target T5, Human CLEC12A expressed on cells …. Description: cell-based or functional assay. The source holds these as a separate data set.

T2 sequence (P08637 17-208 F176V limits assumed): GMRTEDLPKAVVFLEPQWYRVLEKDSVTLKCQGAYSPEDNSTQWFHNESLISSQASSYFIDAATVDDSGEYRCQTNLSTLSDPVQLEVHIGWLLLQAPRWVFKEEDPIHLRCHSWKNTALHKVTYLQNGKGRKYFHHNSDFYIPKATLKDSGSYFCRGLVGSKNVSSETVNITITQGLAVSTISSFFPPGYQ
T3 sequence (P08637 17-208 limits assumed): as the sequence (P08637 17-208 F176V limits assumed) above, with V160F counted along it

B1: AB0089 TriNKET (bispecific antibody, human IgG1, kappa)
chain: QLQLQESGPGLVKPSETLSLTCTVSGFSLTNYGLHWIRQPPGKCLEWIGVIWVGGATDYNPSLKSRVTISVDTSKNQFSLKLSSVQAADTAVYYCAKGDYGDTLDYWGQGTLVTVSSGGGGSGGGGSGGGGSGGGGSDIQMTQSPSSLSASVGDRVTITCHASQNINFWLSWYQQKPGKAPKLLIYEASNLHTGVPSRFSGSGSGTDFTLTISSLQPEDFATYYCQQSHSYPLTFGCGTKLEIKGSDKTHTCPPCPAPELLGGPSVFLFPPKPKDTLMISRTPEVTCVVVDVSHEDPEVKFNWYVDGVEVHNAKTKPREEQYNSTYRVVSVLTVLHQDWLNGKEYKCKVSNKALPAPIEKTISKAKGQPREPRVYTLPPCRDELTKNQVSLTCLVKGFYPSDIAVEWESNGQPENNYKTTPPVLVSDGSFTLYSKLTVDKSRWQQGNVFSCSVMHEALHNHYTQKSLSLSPG
heavy: EVQLVESGGGLVKPGGSLRLSCAASGFTFSSYSMNWVRQAPGKGLEWVSSISSSSSYIYYADSVKGRFTISRDNAKNSLYLQMNSLRAEDTAVYYCARGAPIGAAAGWFDPWGQGTLVTVSSASTKGPSVFPLAPSSKSTSGGTAALGCLVKDYFPEPVTVSWNSGALTSGVHTFPAVLQSSGLYSLSSVVTVPSSSLGTQTYICNVNHKPSNTKVDKKVEPKSCDKTHTCPPCPAPELLGGPSVFLFPPKPKDTLMISRTPEVTCVVVDVSHEDPEVKFNWYVDGVEVHNAKTKPREEQYNSTYRVVSVLTVLHQDWLNGKEYKCKVSNKALPAPIEKTISKAKGQPREPQVCTLPPSRDELTENQVSLTCLVKGFYPSDIAVEWESNGQPENNYKTTPPVLDSDGSFFLYSWLTVDKSRWQQGNVFSCSVMHEALHNHYTQKSLSLSPG
light: DIQMTQSPSSVSASVGDRVTITCRASQGISSWLAWYQQKPGKAPKLLIYAASSLQSGVPSRFSGSGSGTDFTLTISSLQPEDFATYYCQQGVSFPRTFGGGTKVEIKRTVAAPSVFIFPPSDEQLKSGTASVVCLLNNFYPREAKVQWKVDNALQSGNSQESVTEQDSKDSTYSLSSTLTLSKADYEKHKVYACEVTHQGLSSPVTKSFNRGEC
notes: F3' format heterodimer of three chains; human IgG1 Fc with EW-RVT and Y349C/S354C mutations; also called AB0089 Lot AB0089-002; CLEC12A TriNKET AB0089
With B1, the Kd is 941 nM in assay [1], 314 nM in assay [2], 1270 nM in assay [3] and 0.74 nM in assay [6]. The koff is 0.15 s⁻¹ in assay [1], 0.0274 s⁻¹ in assay [2] and 0.042 s⁻¹ in assay [4]. The kon stood at 159000 M⁻¹ s⁻¹ in assay [1] and 87300 M⁻¹ s⁻¹ in assay [2]. In assay [5], the “EC50, rested NK cells lysis of HL60 cells (mean of four donors)” value worked out at 0.09 nM. The “EC50, KHYG-1-CD16aV cytotoxicity assay; after pH 5.0, 40C, 2 wks” value in assay [7] came out at 0.16 nM. For the same molecule, in assay [7], the “EC50, KHYG-1-CD16aV cytotoxicity assay; control sample” value stood at 0.11 nM.

In general, Kd refers to the constant that tells how readily two partners part at equilibrium. As usually defined, the koff is the first-order rate constant of dissociation. One may read the kon as the second-order rate constant of association.
